Assay results reported in patent US20200283478A1 (Genentech, published 2020).
Bridge positions count the residues as written; N and C are the ends. Square brackets hold non-standard residues; d marks the D form. Ends that are not written are not given here. Trp(6-F) = N[C@@H](Cc1c[nH]c2cc(F)ccc12)C(=O)O; hArg = N=C(N)NCCCC[C@H](N)C(=O)O

How the values were obtained:
PCSK9Δhelix = biological target: T1, PCSK9Δhelix (human, Chemically biotinylated in the phage ELISAs; the site is not given.); assay: phage spot ELISA
T1 construct: construct M1-Q692 with engineered TEV site, cleaved by TEV; also called His-PCSK9Δhelix; open groove PCSK9Δhelix
T1 sequence (prodomain, as listed by the source mutant limits assumed, chain 1 of 2): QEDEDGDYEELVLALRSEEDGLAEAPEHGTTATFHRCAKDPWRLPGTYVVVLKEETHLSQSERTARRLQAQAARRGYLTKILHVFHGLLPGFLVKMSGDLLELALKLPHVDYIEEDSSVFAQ
T1 sequence (chain, as listed by the source mutant limits assumed, chain 2 of 2): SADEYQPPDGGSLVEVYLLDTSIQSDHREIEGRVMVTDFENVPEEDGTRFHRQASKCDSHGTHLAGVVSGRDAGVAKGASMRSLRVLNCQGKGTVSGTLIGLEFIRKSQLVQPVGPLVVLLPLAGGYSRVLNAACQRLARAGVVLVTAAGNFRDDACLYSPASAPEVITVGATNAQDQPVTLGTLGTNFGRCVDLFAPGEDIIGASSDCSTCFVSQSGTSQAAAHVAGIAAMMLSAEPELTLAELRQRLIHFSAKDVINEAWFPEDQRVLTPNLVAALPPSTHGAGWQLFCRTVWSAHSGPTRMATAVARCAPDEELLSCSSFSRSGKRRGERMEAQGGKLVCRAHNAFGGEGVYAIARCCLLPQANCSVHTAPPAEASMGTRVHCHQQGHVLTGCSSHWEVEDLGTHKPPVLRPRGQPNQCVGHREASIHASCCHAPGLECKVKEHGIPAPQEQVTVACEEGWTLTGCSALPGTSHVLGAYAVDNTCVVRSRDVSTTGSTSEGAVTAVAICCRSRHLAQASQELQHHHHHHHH

[1] = biological target: T2, proprotein convertase subtilisin/kexin type 9 (PCSK9) (human, UniProt Q8NBP7 31-692); assay: phage spot ELISA
T2 construct: His-tagged full-length PCSK9 in TR-FRET and SPR, biotinylated in phage ELISA; secreted protein is autoprocessed (prodomain plus catalytic/CRD chain starting at S153); also called rec.PCSK9; His-PCSK9
T2 sequence (Q8NBP7 other isoform, or with tags, fused parts or gaps limits assumed): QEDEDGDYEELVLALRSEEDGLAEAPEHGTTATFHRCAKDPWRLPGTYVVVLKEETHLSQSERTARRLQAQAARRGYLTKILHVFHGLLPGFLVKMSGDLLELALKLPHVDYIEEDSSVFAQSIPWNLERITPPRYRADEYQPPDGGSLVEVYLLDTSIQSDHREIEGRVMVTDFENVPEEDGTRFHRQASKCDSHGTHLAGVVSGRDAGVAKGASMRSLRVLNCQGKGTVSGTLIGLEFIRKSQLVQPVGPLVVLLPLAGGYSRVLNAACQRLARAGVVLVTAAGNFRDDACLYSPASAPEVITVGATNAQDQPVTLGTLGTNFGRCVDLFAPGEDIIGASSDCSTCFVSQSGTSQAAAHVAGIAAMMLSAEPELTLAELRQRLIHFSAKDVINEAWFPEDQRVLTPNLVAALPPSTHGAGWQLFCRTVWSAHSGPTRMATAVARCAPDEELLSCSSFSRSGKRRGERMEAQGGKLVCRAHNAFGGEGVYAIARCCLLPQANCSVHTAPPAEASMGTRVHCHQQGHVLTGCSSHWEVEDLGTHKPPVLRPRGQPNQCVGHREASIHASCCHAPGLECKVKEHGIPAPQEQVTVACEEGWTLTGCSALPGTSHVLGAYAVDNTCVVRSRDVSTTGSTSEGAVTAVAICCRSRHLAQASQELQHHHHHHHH

[2] = biological target: T3, His-tagged, full-length PCSK9 (human, UniProt Q8NBP7 31-692); assay: TR-FRET competition; His-PCSK9, competitor EGF(A)-Fc
T3 construct: The secreted protein is autocleaved into a prodomain and a catalytic/Cys-rich chain that starts at S153; also called His-PCSK9
T3 sequence (Q8NBP7 other isoform, or with tags, fused parts or gaps limits assumed): as above
Protocol: (§1) Signal generation in the PCSK9 binding assays was dependent upon the binding interaction to bring into close proximity the His-tag on the PCSK9 and the Fc-tag on the ligand. Anti-His-APC was bound to the His-tag, and anti-Fc-europium was bound to the Fc-tag.
(§2) Compounds were solubilized and dilutions were prepared in DMSO. […] The plate was centrifuged to mix the well contents and allowed to incubate for 30 min. […] The normalized TR-FRET ratios were plotted as a function of the compound concentrations, and the IC₅₀ values were determined using a 4-parameter logistic regression.

His-tagged PCSK9Δhelix = biological target: T4, His-tagged PCSK9Δhelix (human, UniProt Q8NBP7 31-152; Q8NBP7 168-692); assay: TR-FRET competition; His-PCSK9Δhelix, competitor Ab20
T4 construct: Construct M1-Q692 with engineered TEV site, cut by TEV protease; new N-terminus of the catalytic domain is S-A168; also called His-PCSK9Δhelix
T4 sequence (Q8NBP7 31-152, stated change not applied, chain 1 of 2): as the sequence (prodomain, as listed by the source mutant limits assumed, chain 1 of 2) above
T4 sequence (Q8NBP7 other isoform, or with tags, fused parts or gaps mutant, chain 2 of 2): as the sequence (chain, as listed by the source mutant limits assumed, chain 2 of 2) above
Protocol: as §1, §2

| Binder | ELISA (PCSK9Δhelix) | s/n ratio (PCSK9Δhelix) | ELISA [1] | s/n ratio [1] | IC50 [2] | IC50 (His-tagged PCSK9Δhelix) |
| --- | --- | --- | --- | --- | --- | --- |
| TAFTSWEEYLDWVGSGQISYLRNA (not fully specified; also: Q (1) D-amino acid, place in chain unclear (phage-displayed)) [SEQ ID NO 342] | 2.31 | 22.6 | 2.7 | 22.9 | – | – |
| TAFTSWEEYLDWVGSGCWTYLRGGCSVT [SEQ ID NO 339] | 3.05 | 20.2 | 3.07 | 22.1 | – | – |
| TAFTSWEEYLDWVGSGSETGLGTYYG [SEQ ID NO 350] | 2.78 | 25.5 | 2.81 | 28.1 | – | – |
| TAFTSWEEYLDWVGSGCMEAWQCSLA [SEQ ID NO 337] | – | – | 2.73 | 24.6 | – | – |
| Ac-SFAFPGWNLV[hArg]IGLLR-NH2 (SMILES CC[C@H](C)[C@H](NC(=O)[C@H](CCCCNC(=N)N)NC(=O)[C@@H](NC(=O)[C@H](CC(C)C)NC(=O)[C@H](CC(N)=O)NC(=O)[C@H](Cc1c[nH]c2ccccc12)NC(=O)CNC(=O)[C@@H]1CCCN1C(=O)[C@H](Cc1ccccc1)NC(=O)[C@H](C)NC(=O)[C@H](Cc1ccccc1)NC(=O)[C@H](CO)NC(C)=O)C(C)C)C(=O)NCC(=O)N[C@@H](CC(C)C)C(=O)N[C@@H](CC(C)C)C(=O)N[C@@H](CCCNC(=N)N)C(N)=O) [Compound 228] | – | – | – | – | 1.3 µM | 13 µM |
| Ac-SFAFPGWNLK[hArg]IGLLR-NH2 (SMILES CC[C@H](C)[C@H](NC(=O)[C@H](CCCCNC(=N)N)NC(=O)[C@H](CCCCN)NC(=O)[C@H](CC(C)C)NC(=O)[C@H](CC(N)=O)NC(=O)[C@H](Cc1c[nH]c2ccccc12)NC(=O)CNC(=O)[C@@H]1CCCN1C(=O)[C@H](Cc1ccccc1)NC(=O)[C@H](C)NC(=O)[C@H](Cc1ccccc1)NC(=O)[C@H](CO)NC(C)=O)C(=O)NCC(=O)N[C@@H](CC(C)C)C(=O)N[C@@H](CC(C)C)C(=O)N[C@@H](CCCNC(=N)N)C(N)=O) [Compound 232] | – | – | – | – | 0.93 µM | 13 µM |
| TAFTSWEEYLDWVGSGGREMRSVIQM [SEQ ID NO 344] | 2.74 | 26.6 | 2.71 | 28.2 | – | – |
| TAFTSWEEYLDWVGSGNMCYLRGKMDCNIV [SEQ ID NO 347] | 2.83 | 28.6 | 2.91 | 30.9 | – | – |
| TAFTSWEEYLDWVGSGVCSDHYIGGKEVRC [SEQ ID NO 348] | 2.94 | 15.4 | 2.99 | 27.4 | – | – |
| TAFTSWEEYLDWVGSGQTTYLRVSSS [SEQ ID NO 341] | 2.29 | 24.4 | 2.59 | 27 | – | – |
| TAFTSWEEYLDWVGSGDCNLWGDDGKYRLCF [SEQ ID NO 333] | 2.81 | 23 | 2.72 | 23.6 | – | – |
| TAFTSWEEYLDWVGSGPRTYLRGLVD [SEQ ID NO 340] | 2.73 | 25.1 | 2.77 | 25.6 | – | – |
| Ac-ESFPGWNLV[hArg]IGLLR-NH2 (SMILES CC[C@H](C)[C@H](NC(=O)[C@H](CCCCNC(=N)N)NC(=O)[C@@H](NC(=O)[C@H](CC(C)C)NC(=O)[C@H](CC(N)=O)NC(=O)[C@H](Cc1c[nH]c2ccccc12)NC(=O)CNC(=O)[C@@H]1CCCN1C(=O)[C@H](Cc1ccccc1)NC(=O)[C@H](CO)NC(=O)[C@H](CCC(=O)O)NC(C)=O)C(C)C)C(=O)NCC(=O)N[C@@H](CC(C)C)C(=O)N[C@@H](CC(C)C)C(=O)N[C@@H](CCCNC(=N)N)C(N)=O) [Compound 227] | – | – | – | – | 2.5 µM | 24 µM |
| Ac-DSYPGWNLV[hArg]IGLLR-NH2 (SMILES CC[C@H](C)[C@H](NC(=O)[C@H](CCCCNC(=N)N)NC(=O)[C@@H](NC(=O)[C@H](CC(C)C)NC(=O)[C@H](CC(N)=O)NC(=O)[C@H](Cc1c[nH]c2ccccc12)NC(=O)CNC(=O)[C@@H]1CCCN1C(=O)[C@H](Cc1ccc(O)cc1)NC(=O)[C@H](CO)NC(=O)[C@H](CC(=O)O)NC(C)=O)C(C)C)C(=O)NCC(=O)N[C@@H](CC(C)C)C(=O)N[C@@H](CC(C)C)C(=O)N[C@@H](CCCNC(=N)N)C(N)=O) [Compound 230] | – | – | – | – | 2.3 µM | 24 µM |
| TAFTSWEEYLDWVGSGGVLGVGGMWIA [SEQ ID NO 335] | 2.61 | 24.4 | 1.45 | 12.8 | – | – |
| TAFTSWEEYLDWVGSGQELPNHRRLS [SEQ ID NO 346] | 2.43 | 14.3 | 2.3 | 19.1 | – | – |
| TAFTSWEEYLDWVGSGCVKVGLSWIGDCNS [SEQ ID NO 334] | 2.74 | 25.1 | 2.66 | 23.9 | – | – |
| Ac-TVFTS[Trp(6-F)]EEYLDWVGSGCRLPWNLQRIGLPC-NH2 (disulfide 17-30 (inferred)) [Compound 241] | – | – | – | – | 1.6 µM | 0.1 µM |
| TAFTSWEEYLDWVGSGRGEVYDKGGVIVHL [SEQ ID NO 343] | 2.83 | 30.1 | 2.84 | 30.5 | – | – |
| TAFTSWEEYLDWVGSGGDCGYHYMCSMT [SEQ ID NO 345] | 2.63 | 25.5 | 2.75 | 25 | – | – |
| WNLV[hArg]IG-NH2 (N-terminus assumed; SMILES CC[C@H](C)[C@H](NC(=O)[C@H](CCCCNC(=N)N)NC(=O)[C@@H](NC(=O)[C@H](CC(C)C)NC(=O)[C@H](CC(N)=O)NC(=O)[C@@H](N)Cc1c[nH]c2ccccc12)C(C)C)C(=O)NCC(N)=O, also called WNLV(homoR)IG-NH2) [Compound 236] | – | – | – | – | ≥ 50 µM | 22 µM |
| Ac-MESFPGWNLV[hArg]IGLLR-NH2 (SMILES CC[C@H](C)[C@H](NC(=O)[C@H](CCCCNC(=N)N)NC(=O)[C@@H](NC(=O)[C@H](CC(C)C)NC(=O)[C@H](CC(N)=O)NC(=O)[C@H](Cc1c[nH]c2ccccc12)NC(=O)CNC(=O)[C@@H]1CCCN1C(=O)[C@H](Cc1ccccc1)NC(=O)[C@H](CO)NC(=O)[C@H](CCC(=O)O)NC(=O)[C@H](CCSC)NC(C)=O)C(C)C)C(=O)NCC(=O)N[C@@H](CC(C)C)C(=O)N[C@@H](CC(C)C)C(=O)N[C@@H](CCCNC(=N)N)C(N)=O) [Compound 229] | – | – | – | – | 0.81 µM | 8.1 µM |
| Ac-MESFPGWNLK[hArg]IGLLR-NH2 (SMILES CC[C@H](C)[C@H](NC(=O)[C@H](CCCCNC(=N)N)NC(=O)[C@H](CCCCN)NC(=O)[C@H](CC(C)C)NC(=O)[C@H](CC(N)=O)NC(=O)[C@H](Cc1c[nH]c2ccccc12)NC(=O)CNC(=O)[C@@H]1CCCN1C(=O)[C@H](Cc1ccccc1)NC(=O)[C@H](CO)NC(=O)[C@H](CCC(=O)O)NC(=O)[C@H](CCSC)NC(C)=O)C(=O)NCC(=O)N[C@@H](CC(C)C)C(=O)N[C@@H](CC(C)C)C(=O)N[C@@H](CCCNC(=N)N)C(N)=O) [Compound 233] | – | – | – | – | 3.1 µM | 50 µM |
| TAFTSWEEYLDWVGSGCCSYGYEKCCNG [SEQ ID NO 349] | 2.88 | 27.2 | 2.87 | 28.6 | – | – |
| WNLV[hArg]IGQR (also: further groups not given here, Structure printed only as a drawing) [Compound 239] | – | – | – | – | 32 µM | 1.2 µM |
| WNLV[hArg]IGNR (also: further groups not given here, Structure printed only as a drawing) [Compound 240] | – | – | – | – | 31 µM | 0.92 µM |
| TAFTSWEEYLDWVGSGSYRGAWSVFGGSTD [SEQ ID NO 336] | 2.69 | 17.2 | 2.79 | 19.5 | – | – |
| TAFTSWEEYLDWVGSGQCYPWCRL [SEQ ID NO 338] | 2.65 | 29.2 | 2.71 | 25.1 | – | – |
